Assay results reported in patent US20260217813A1 (published 2026).
Changes are numbered by the printed parent chain.

T1: IL-12 (Human IL12 (His Tag)), Sino Biological Cat. No. CT-050-H08H-20 (human, UniProt P29460 23-328; P29459 23-219)
T1 construct: Bought His-tagged p35/p40 heterodimer
T1 sequence (looked up) 1: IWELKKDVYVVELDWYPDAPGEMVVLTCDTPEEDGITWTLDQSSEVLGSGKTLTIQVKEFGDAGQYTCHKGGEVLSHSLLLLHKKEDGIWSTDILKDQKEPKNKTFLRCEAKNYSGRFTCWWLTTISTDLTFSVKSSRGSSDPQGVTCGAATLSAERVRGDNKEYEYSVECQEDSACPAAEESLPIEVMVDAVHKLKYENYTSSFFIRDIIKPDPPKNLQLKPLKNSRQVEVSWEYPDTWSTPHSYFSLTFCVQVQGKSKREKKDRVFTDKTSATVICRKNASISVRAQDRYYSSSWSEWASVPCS
T1 sequence (looked up) 2: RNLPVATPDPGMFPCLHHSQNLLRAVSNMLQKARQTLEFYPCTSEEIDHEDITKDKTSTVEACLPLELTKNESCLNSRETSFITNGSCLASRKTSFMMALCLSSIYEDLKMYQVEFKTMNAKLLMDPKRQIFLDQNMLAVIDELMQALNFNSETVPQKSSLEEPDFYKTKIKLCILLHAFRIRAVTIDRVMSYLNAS

T2: human IL-23 (IL-23-His-Biotin, Akesobio, 20161209) (human, UniProt Q9NPF7 20-189; P29460 23-328)
T2 construct: His-tagged and biotinylated; also called human IL23-His-Biotin
T2 sequence (looked up) 1: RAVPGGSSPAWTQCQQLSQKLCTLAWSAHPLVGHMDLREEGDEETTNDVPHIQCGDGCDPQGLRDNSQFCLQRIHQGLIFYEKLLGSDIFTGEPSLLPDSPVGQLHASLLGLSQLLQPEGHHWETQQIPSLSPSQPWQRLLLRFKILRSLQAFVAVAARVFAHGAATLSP
T2 sequence (looked up) 2: T1 sequence (looked up) 1

B1: H5L9 (antibody, human IgG1, kappa, V domains shown)
VH: EVQLVQSGAEVKKPGESLKISCQSSGYSFTTYWIGWVRQMPGQGLEWIGIMSPVDSDIRYNPMFRGQVTMSVDKSSSTAYLQWSSLKASDTAMYYCARRRPGQGYFDFWGQGTMVTVSS
VL: DIQMTQSPSSLSASVGDRVTITCKASQNVGSWLAWYQQKPGKAPKSLIYSASSRQSGVPSRFSGSGSGTDFTLTISSLQPEDFATYYCQQYDIYPFTFGQGTKLEIKR
notes: Humanized anti-human IL-12/IL-23 p40 antibody; IgG1 (P01857) / kappa (P01834) constant regions
B2: H5L10 (antibody, human IgG1, kappa, V domains shown)
VH: B1 VH
VL: EIVLTQSPATLSASPGERATISCRASQSVGSWLAWYQQKPGQAPRSLIYAASNLQSGIPARFSGSGSGTDFTLTISSLEPEDFAVYYCQQYNIYPYTFGQGTRLEIKR
notes: IgG1/kappa
B3: H5L14 (antibody, human IgG1, kappa, V domains shown)
VH: B1 VH
VL: B2 VL with G30S, Y96F
notes: IgG1/kappa
B4: H5L11 (antibody, human IgG1, kappa, V domains shown)
VH: B1 VH
VL: B2 VL with G30S, A50S
notes: IgG1/kappa
B5: H5L12 (antibody, human IgG1, kappa, V domains shown)
VH: B1 VH
VL: B2 VL with G30S, L54R
notes: IgG1/kappa
B6: ustekinumab (trade name Stelara) (antibody, V domains shown)
VH: EVQLVQSGAEVKKPGESLKISCKGSGYSFTTYWLGWVRQMPGKGLDWIGIMSPVDSDIRYSPSFQGQVTMSVDKSITTAYLQWNSLKASDTAMYYCARRRPGQGYFDFWGQGTLVTVSS
VL: DIQMTQSPSSLSASVGDRVTITCRASQGISSWLAWYQQKPEKAPKSLIYAASSLQSGVPSRFSGSGSGTDFTLTISSLQPEDFATYYCQQYNIYPYTFGQGTKLEIK

These binders were tested against T1, IL-12 (Human IL12 (His Tag)), Sino … (assay: FACS competition, IL-12-His 20 nM on 293T-IL-12RB1&IL-23R cells, antibody 30 µg/mL).
Description: (§1) 200 μL of 1% PBSA was added into each sample, and the mixture was centrifuged at 700×g for 5 min to discard the supernatant. According to experiment design, correspondingly diluted antibody (highest final concentration of 30 μg/mL, 3-fold dilution, 8 concentrations in total) and human IL-12 (Sino Biological, Cat. No.: CT-050-H08H-20) (final concentration of 20 nM) were mixed at a ratio of 1:1, and a blank control was set. The mixture of antibody and human IL12 was incubated on ice for 30 min and then added to the cell precipitate at 100 μL/sample. The resulting mixture was well mixed and incubated on ice for 60 min. 200 μL of 1% PBSA was added, and the mixture was centrifuged at 700×g for 5 min to discard the supernatant, and then washed twice. Alexa Fluor® 488 anti-His tag antibody (Biolegend, Cat. No.: 652509) was diluted at a ratio of 1:400 and added to each tube at 100 μL. The mixture was well mixed and incubated on ice for 40 min in the absence of light. 200 μL of 1% PBSA was added, and the mixture was centrifuged at 700×g for 5 min to discard the supernatant, and then washed twice. 1% PBSA was added at 200 μL/tube, and the cells were resuspended and transferred to a flow cytometry tube for testing.

| Binder | MFI |
| --- | --- |
| B1 | 117 |
| B2 | 31.6 |
| B3 | 34.9 |
| B4 | 33 |
| B5 | 31.8 |
| B6 | 28.7 |

The binders below were run against T1, IL-12 (Human IL12 (His Tag)), Sino … (assay: FACS competition, IL-12-His 20 nM on 293T-IL-12RB1&IL-23R cells, antibody 0.01 µg/mL).
Description: as §1

| Binder | MFI |
| --- | --- |
| B1 | 169 |
| B2 | 163 |
| B3 | 149 |
| B4 | 166 |
| B5 | 161 |
| B6 | 160 |

These binders were tested against T1, IL-12 (Human IL12 (His Tag)), Sino … (assay: FACS competition, IL-12-His 20 nM on 293T-IL-12RB1&IL-23R cells, antibody 0.12 µg/mL).
Description: as §1

| Binder | MFI |
| --- | --- |
| B1 | 160 |
| B2 | 151 |
| B3 | 146 |
| B4 | 145 |
| B5 | 133 |
| B6 | 137 |

The binders below were run against T1, IL-12 (Human IL12 (His Tag)), Sino … (assay: FACS competition, IL-12-His 20 nM on 293T-IL-12RB1&IL-23R cells, antibody 0.37 µg/mL).
Description: as §1

| Binder | MFI |
| --- | --- |
| B1 | 159 |
| B2 | 87.5 |
| B3 | 113 |
| B4 | 103 |
| B5 | 86.6 |
| B6 | 95.7 |

What follows are binders tested against T1, IL-12 (Human IL12 (His Tag)), Sino … (assay: FACS competition, IL-12-His 20 nM on 293T-IL-12RB1&IL-23R cells, antibody 1.11 µg/mL).
Description: as §1

| Binder | MFI |
| --- | --- |
| B1 | 157 |
| B2 | 44.6 |
| B3 | 66 |
| B4 | 54.3 |
| B5 | 38.5 |
| B6 | 31.9 |

What follows are binders tested against T2, human IL-23 (IL-23-His-Biotin, …) (assay: FACS competition, IL-23-His-Biotin 2 µg/mL on 293T-IL-12RB1&IL-23R cells, antibody 10 µg/mL).
Description: (§2) 2.1. […] 200 μL of 1% PBSA was added into each sample, and the mixture was centrifuged at 700×g for 5 min to discard the supernatant. According to experiment design, correspondingly diluted antibody (highest final concentration of 30 μg/mL, 3-fold dilution, 8 concentrations in total) and human IL-23 (IL-23-His-Biotin, Akesobio, 20161209) (final concentration of 2 μg/mL) were mixed at a ratio of 1:1, and a blank control was set. The mixture of antibody and human IL23 was incubated on ice for 30 min and then added to the cell precipitate at 100 μL/sample. The resulting mixture was well mixed and incubated on ice for 60 min. 200 μL of 1% PBSA was added, and the mixture was centrifuged at 700×g for 5 min to discard the supernatant, and then washed twice. FITC Streptavidin (Biolegend, Cat. No.: 405202) was diluted at a ratio of 1:500 and added to each tube at 100 μL. The mixture was well mixed and incubated on ice for 40 min in the absence of light. 200 μL of 1% PBSA was added, and the mixture was centrifuged at 700×g for 5 min to discard the supernatant, and then washed twice. 1% PBSA was added at 200 μL/tube, and the cells were resuspended and transferred to a flow cytometry tube for testing.

| Binder | MFI |
| --- | --- |
| B1 | 136 |
| B2 | 12.7 |
| B3 | 16.7 |
| B4 | 14.5 |
| B5 | 12.7 |
| B6 | 11.5 |

These binders were tested against T2, human IL-23 (IL-23-His-Biotin, …) (assay: FACS competition, IL-23-His-Biotin 2 µg/mL on 293T-IL-12RB1&IL-23R cells, antibody 0.01 µg/mL).
Description: as §2

| Binder | MFI |
| --- | --- |
| B1 | 222 |
| B2 | 223 |
| B3 | 218 |
| B4 | 219 |
| B5 | 221 |
| B6 | 219 |

Each binder was assayed against T2, human IL-23 (IL-23-His-Biotin, …) (assay: FACS competition, IL-23-His-Biotin 2 µg/mL on 293T-IL-12RB1&IL-23R cells, antibody 3.33 µg/mL).
Description: as §2

| Binder | MFI |
| --- | --- |
| B1 | 153 |
| B2 | 15.7 |
| B3 | 23.6 |
| B4 | 20.2 |
| B5 | 15.8 |
| B6 | 13.8 |
